Test results published in patent US20120277161A1 (INTER K, published 2012).

What follows are binders tested against cellular Src tyrosine kinase (c-Src) (human, UniProt P12931 1-536, limits assumed) (assay: cell-based or functional assay).

Binder	% Inhibition of control, c-Src tyrosine kinase activity, cell-free assay, peptide at 50 µM
RARAKNPLYK [RARAKNPLYK peptide]	29 % inhibition
NPLYR [NPLYR peptide]	0 % inhibition
RSKAKNPLYR [RSKAKNPLYR peptide]	57 % inhibition
RSKAK [RSKAK peptide]	3 % inhibition
RSKAKWQTGTNPLYR [RSKAKWQTGTNPLYR peptide]	44 % inhibition
KEKLKNPLFK [KEKLKNPLFK peptide]	55 % inhibition
RSRARNPLYR [RSRARNPLYR peptide]	37 % inhibition
WQTGT [WQTGT peptide]	0 % inhibition

What follows are binders tested against human ERK2 (human, UniProt P28482 1-360) (assay: cell-based or functional assay).
human ERK2, sequence (P28482 whole entry): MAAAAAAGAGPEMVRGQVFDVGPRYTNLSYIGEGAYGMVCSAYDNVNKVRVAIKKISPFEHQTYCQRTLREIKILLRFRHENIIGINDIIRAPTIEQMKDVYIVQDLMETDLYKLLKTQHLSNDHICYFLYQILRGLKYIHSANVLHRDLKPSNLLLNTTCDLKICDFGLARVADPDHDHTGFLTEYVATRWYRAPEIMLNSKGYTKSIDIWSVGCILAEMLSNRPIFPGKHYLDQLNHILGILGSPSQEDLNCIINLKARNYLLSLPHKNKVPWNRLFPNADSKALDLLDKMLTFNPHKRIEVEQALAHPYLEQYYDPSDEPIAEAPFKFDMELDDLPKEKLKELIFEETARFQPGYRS

Binder	inhibition of ERK2 activity relative to control, cell-free assay, peptide at 50 µM
RSRARNPLYR [RSRARNPLYR peptide]	4 % inhibition
